Tested on: Fibroblasts
Assay: Hyaluronic acid production by cultured fibroblasts (ELISA of culture medium)
Format: cell-based
Settings: fibroblast culture; even at the lowest concentrations tested
Description: Fibroblasts were seeded into individual wells of a 12-well plate in 1.0 ml of Fibroblast Growth Media (FGM) and incubated overnight at 37±2° C. and 5±1% CO2. On the following day the media was removed via aspiration to eliminate non-adherent cells and replaced with 1.0 ml of fresh FGM. Cells were grown until confluent, with a media change every 48 to 72 hours. Upon reaching confluency the cells were treated for 24 hours with DMEM supplemented with 1.5% FBS to eliminate growth factors from the normal culture media. After this 24-hour wash-out period the cells were treated with the indicated test materials (i.e., milk-derived products containing lactoferrin) at the specified concentrations dissolved in FGM with 1.5% FBS. Dibutyrl cAMP (DBcAMP) at 0.1 mM was used as a positive control. Untreated cells (negative control) received FGM with 1.5% FBS. The cells were incubated for 48 hours and at the end of the incubation period cell culture medium was collected and either stored frozen (−75° C.) or assayed immediately. All testing was done in triplicate.
A series of hyaluronic acid standards from 50 ng/ml to 3,200 ng/ml was prepared. […] After incubation, 50 μl of stop solution was added to each well and the absorbance was measured at 405 nm using a plate reader. Hyaluronic acid production was expressed as ng/ml and results are shown in Table 1 and the graph of FIG. 1.

B1: bovine milk-derived lactoferrin: multi-functional protein found in mammalian milk, primarily in the whey fraction (protein, UniProt P24627 20-708, looked up)
Lactotransferrin: APRKNVRWCTISQPEWFKCRRWQWRMKKLGAPSITCVRRAFALECIRAIAEKKADAVTLDGGMVFEAGRDPYKLRPVAAEIYGTKESPQTHYYAVAVVKKGSNFQLDQLQGRKSCHTGLGRSAGWIIPMGILRPYLSWTESLEPLQGAVAKFFSASCVPCIDRQAYPNLCQLCKGEGENQCACSSREPYFGYSGAFKCLQDGAGDVAFVKETTVFENLPEKADRDQYELLCLNNSRAPVDAFKECHLAQVPSHAVVARSVDGKEDLIWKLLSKAQEKFGKNKSRSFQLFGSPPGQRDLLFKDSALGFLRIPSKVDSALYLGSRYLTTLKNLRETAEEVKARYTRVVWCAVGPEEQKKCQQWSQQSGQNVTCATASTTDDCIVLVLKGEADALNLDGGYIYTAGKCGLVPVLAENRKSSKHSSLDCVLRPTEGYLAVAVVKKANEGLTWNSLKDKKSCHTAVDRTAGWNIPMGLIVNQTGSCAFDEFFSQSCAPGADPKSRLCALCAGDDQGLDKCVPNSKEKYYGYTGAFRCLAEDVGDVAFVKNDTVWENTNGESTADWAKNLNREDFRLLCLDGTRKPVTEAQSCHLAVAPNHAVVSRSDRAAHVKQVLLHQQALFGKNGKNCPDKFCLFKSETKNLLFNDNTECLAKLGGRPTYEEYLGTEYVTAIANLKKCSTSPLLEACAFLTR
- hyaluronic acid levels compared with untreated fibroblasts: detectable and significant increase
